One substance from publication PMC7402679 can be followed below.

For the assay, the target named is HA-tagged MnPV L1_(SHORT), expressed in Mastomys-derived fibroblasts (Mastomys natalensis papillomavirus (MnPV)). The assay can be described thus: SDS-PAGE and western blot of high-MW (multimer) bands; lysates of transfected MaFi132 cells in 1.25x Laemmli buffer (2.5% SDS, 2.5% beta-mercaptoethanol), 95 C 5 min; 8% SDS-PAGE; detected with mAb 2D11, Mastomys serum mix and anti-HA. (In general: A western blot detects proteins with antibodies after separation by electrophoresis.)

Where “and” joins values, the source holds several entries; their conditions need not be identical. Identical values can stand only once.

With “HA-tagged MnPV L1_(SHORT), expressed in Mastomys-derived fibroblasts (natural protein)”, the stoichiometry N – broadly, the number of molecules, sites or subunits per partner or assembly – is 2 and 3.
